According to patent US20230310603A1 (BEIJING NEUROSURGICAL INSTITUTE, published 2023):

T1: CD133 on CD44- and CD133-positive glioma stem cells GSC20 (UniProt O43490 20-865, limits assumed)
T1 sequence (looked up): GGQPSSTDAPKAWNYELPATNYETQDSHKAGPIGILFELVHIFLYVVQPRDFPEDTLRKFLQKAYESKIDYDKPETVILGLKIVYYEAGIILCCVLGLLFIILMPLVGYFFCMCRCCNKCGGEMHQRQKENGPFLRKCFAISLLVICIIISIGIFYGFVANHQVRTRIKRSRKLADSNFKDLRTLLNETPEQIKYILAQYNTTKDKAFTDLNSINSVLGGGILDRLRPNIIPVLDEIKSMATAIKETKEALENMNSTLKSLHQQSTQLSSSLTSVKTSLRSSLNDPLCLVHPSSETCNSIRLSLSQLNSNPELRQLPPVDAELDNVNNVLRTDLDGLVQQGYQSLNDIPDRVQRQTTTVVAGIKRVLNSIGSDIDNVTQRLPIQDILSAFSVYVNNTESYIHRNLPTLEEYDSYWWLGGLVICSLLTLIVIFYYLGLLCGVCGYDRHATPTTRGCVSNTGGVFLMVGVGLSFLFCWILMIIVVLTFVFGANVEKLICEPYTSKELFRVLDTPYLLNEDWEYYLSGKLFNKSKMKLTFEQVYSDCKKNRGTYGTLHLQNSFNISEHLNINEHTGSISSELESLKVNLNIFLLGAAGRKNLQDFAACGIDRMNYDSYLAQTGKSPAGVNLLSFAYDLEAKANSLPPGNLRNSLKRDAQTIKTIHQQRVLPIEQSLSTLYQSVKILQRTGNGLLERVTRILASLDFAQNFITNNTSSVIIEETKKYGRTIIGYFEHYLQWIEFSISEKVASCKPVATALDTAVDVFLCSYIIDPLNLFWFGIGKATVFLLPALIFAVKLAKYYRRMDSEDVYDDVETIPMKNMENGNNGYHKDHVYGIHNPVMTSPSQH

B1: fusion protein shown in SEQ ID NO. 4 (anti-CD133 single-chain antibody, CD28, truncated body of IL7Rα, CD3), expressed on CAR-T 2 cells (other)
chain: QVQLVQSGAEVKKPGASVKVSCKASGYTFTDFEMHWVRQAPGQGLEWMGDIDPGTGDTAYNLKFKGRVTMTTDTSTSTAYMELRSLRSDDTAVYYCALGAFVYWGQGTLVTVSSGSTSGGGSGGGSGGGGSSDVVMTQSPLSLPVTPGEPASISCRSSQSLANSYGNTYLSWYLQKPGQSPQLLIYGISNRFSGVPDRFSGSGSGTDFTLKISRVEAEDVGVYYCLQGTHQPYTFGQGTKLEIKTTTPAPRPPTPAPTIASQPLSLRPEACRPAAGGAVHTRGLDFACDIYIWAPLAGTCGVLLLSLVITLYCRSKRSRLLHSDYMNMTPRRPGPTRKHYQPYAPPRDFAAYRSKKRIKPIVWPSLPDHKKTLEHLCKKPRKNLNVSFNPESFLDCQIHRVDDIQARDEVEGFLQDTFPQQLEESEKQRLLGSNQEEAYVTMSSFYQNQRVKFSRSADAPAYKQGQNQLYNELNLGRREEYDVLDKRRGRDPEMGGKPRRKNPQEGLYNELQKDKMAEAYSEIGMKGERRRGKGHDGLYQGLSTATKDTYDALHMQALPPR
B2: fusion protein shown in SEQ ID NO. 6 (anti-CD133 single-chain antibody, CD28, truncated body of IL7Rα, CD3, T2A, anti-TIM3 single-chain antibody), expressed in … (other)
chain: QVQLVQSGAEVKKPGASVKVSCKASGYTFTDFEMHWVRQAPGQGLEWMGDIDPGTGDTAYNLKFKGRVTMTTDTSTSTAYMELRSLRSDDTAVYYCALGAFVYWGQGTLVTVSSGSTSGGGSGGGSGGGGSSDVVMTQSPLSLPVTPGEPASISCRSSQSLANSYGNTYLSWYLQKPGQSPQLLIYGISNRFSGVPDRFSGSGSGTDFTLKISRVEAEDVGVYYCLQGTHQPYTFGQGTKLEIKTTTPAPRPPTPAPTIASQPLSLRPEACRPAAGGAVHTRGLDFACDIYIWAPLAGTCGVLLLSLVITLYCRSKRSRLLHSDYMNMTPRRPGPTRKHYQPYAPPRDFAAYRSKKRIKPIVWPSLPDHKKTLEHLCKKPRKNLNVSFNPESFLDCQIHRVDDIQARDEVEGFLQDTFPQQLEESEKQRLLGSNQEEAYVTMSSFYQNQRVKFSRSADAPAYKQGQNQLYNELNLGRREEYDVLDKRRGRDPEMGGKPRRKNPQEGLYNELQKDKMAEAYSEIGMKGERRRGKGHDGLYQGLSTATKDTYDALHMQALPPREGRGSLLTCGDVEENPGPMTNKCLLQIALLLCFSTTALSQVQLQQSGPGLVKPSHTLSLTCTVSGGSISSGGYYWSWTRQHPGMGLEWIGYISYSGSIYYTPSLKSRLTISVDTSKNQFSLKLSSVTAADTAVYYCASLDSWGSNRDYWGQGTLVTVSSGGGGSEIVLTQSPATLSLSPGERATLSCRASQSVSSYLAWYQQKPGQAPRLLIYDASNRATGIPARFSGSGSGTDFTLTISSLEPEDFAVYYCQQRSNWPLTFGGGTKVEIK
B3: fusion protein shown in SEQ ID NO. 3 (anti-CD133 single-chain antibody, CD28, CD3), expressed on CAR-T 1 cells (other)
chain: QVQLVQSGAEVKKPGASVKVSCKASGYTFTDFEMHWVRQAPGQGLEWMGDIDPGTGDTAYNLKFKGRVTMTTDTSTSTAYMELRSLRSDDTAVYYCALGAFVYWGQGTLVTVSSGSTSGGGSGGGSGGGGSSDVVMTQSPLSLPVTPGEPASISCRSSQSLANSYGNTYLSWYLQKPGQSPQLLIYGISNRFSGVPDRFSGSGSGTDFTLKISRVEAEDVGVYYCLQGTHQPYTFGQGTKLEIKTTTPAPRPPTPAPTIASQPLSLRPEACRPAAGGAVHTRGLDFACDIYIWAPLAGTCGVLLLSLVITLYCRSKRSRLLHSDYMNMTPRRPGPTRKHYQPYAPPRDFAAYRSRVKFSRSADAPAYKQGQNQLYNELNLGRREEYDVLDKRRGRDPEMGGKPRRKNPQEGLYNELQKDKMAEAYSEIGMKGERRRGKGHDGLYQGLSTATKDTYDALHMQALPPR
B4: fusion protein shown in SEQ ID NO. 5 (anti-CD133 single-chain antibody, CD28, CD3, T2A, anti-TIM3 single-chain antibody), expressed in CAR-T 3 cells (other)
chain: QVQLVQSGAEVKKPGASVKVSCKASGYTFTDFEMHWVRQAPGQGLEWMGDIDPGTGDTAYNLKFKGRVTMTTDTSTSTAYMELRSLRSDDTAVYYCALGAFVYWGQGTLVTVSSGSTSGGGSGGGSGGGGSSDVVMTQSPLSLPVTPGEPASISCRSSQSLANSYGNTYLSWYLQKPGQSPQLLIYGISNRFSGVPDRFSGSGSGTDFTLKISRVEAEDVGVYYCLQGTHQPYTFGQGTKLEIKTTTPAPRPPTPAPTIASQPLSLRPEACRPAAGGAVHTRGLDFACDIYIWAPLAGTCGVLLLSLVITLYCRSKRSRLLHSDYMNMTPRRPGPTRKHYQPYAPPRDFAAYRSRVKFSRSADAPAYKQGQNQLYNELNLGRREEYDVLDKRRGRDPEMGGKPRRKNPQEGLYNELQKDKMAEAYSEIGMKGERRRGKGHDGLYQGLSTATKDTYDALHMQALPPREGRGSLLTCGDVEENPGPMTNKCLLQIALLLCFSTTALSQVQLQQSGPGLVKPSHTLSLTCTVSGGSISSGGYYWSWTRQHPGMGLEWIGYISYSGSIYYTPSLKSRLTISVDTSKNQFSLKLSSVTAADTAVYYCASLDSWGSNRDYWGQGTLVTVSSGGGGSEIVLTQSPATLSLSPGERATLSCRASQSVSSYLAWYQQKPGQAPRLLIYDASNRATGIPARFSGSGSGTDFTLTISSLEPEDFAVYYCQQRSNWPLTFGGGTKVEIK

target: T1, CD133 on CD44- and CD133-positive …; test: cell-based or functional assay

In order of rising “Lysis rate of glioma stem cells GSC20 by CAR-T cells (LDH release, 4 h), effect-target ratio 1:1” value:
1. B3  6.53%
2. B1  16.3%
3. B4  16.9%
4. B2  31.4%

In order of falling “Lysis rate of glioma stem cells GSC20 by CAR-T cells (LDH release, 4 h), effect-target ratio 2:1” value:
1. B2  36.8%
2. B1  28%
3. B3  26%
4. B4  20.3%

In order of falling “Lysis rate of glioma stem cells GSC20 by CAR-T cells (LDH release, 4 h), effect-target ratio 3:1” value:
1. B2  69.6%
2. B1  39.6%
3. B4  35.3%
4. B3  33.5%

In order of falling “Lysis rate of glioma stem cells GSC20 by CAR-T cells (LDH release, 4 h), effect-target ratio 5:1” value:
1. B2  87.2%
2. B4  49.5%
3. B1  43.4%
4. B3  41.4%
